The data set in a line: soluble on expression in E. coli; label from the status in PepcDB or PDB records.
As for “GAMDPMICLGLEGTAEKTGVGIVTSDGEVLFNKTIMYKPPKQGINPREAADHHAETFPKLIKEAFEVVDKNEIDLIAFSQGPGLGPSLRVTATVARTLSLTLKKPIIGVNHCIAHIEIGKLTTEAEDPLTLYVSGGNTQVIAYVSKKYRVFGETLDIAVGNCLDQFARYVNLPHPGGPYIEELARKGKKLVDLPYTVKGMDIAFSGLLTAAMRAYDAGERLEDICYSLQEYAFSMLTEITERALAHTNKGEVMLVGGVAANNRLREMLKAMCEGQNVDFYVPPKEFCGDNGAMIAWLGLLMHKNGRWMSLDETKIIPNYRTDMVEVNWIKEIKGKKRKIPEHLIGKGAEADIKRDSYLDFDVIIKERVKKGYRDERLDENIRKSRTAREARYLALVKDFGIPAPYIFDVDLDNKRIMMSYINGKLAKDVIEDNLDIAYKIGEIVGKLHKNDVIHNDLTTSNFIFDKDLYIIDFGLGKISNLDEDKAVDLIVFKKAVLSTHHEKFDEIWERFLEGYKSVYDRWEIILELMKDVERRARYVE”, the “soluble on expression in E. coli” value was “soluble”.

Turning to “EALLNDSALQSVPIVVPSRGSKLLGATLKTELTQEEVQQTLVDGFFPQVAITDHPVQRNRGALTQMGLPYAQDAGITRHIAAFLSKQAHAQSGGESAQAQDFNPFANMPGMPGSDAAQSADFIKPTAILFNGGVLKSKLLATRLEDTINKWLIEADAEMAKRLTGVDLDLAVASGAAYYGSVRRGQGVRIRGGIASAYYVGIESAMPAIPGMAPPMEALCVAPFGMEEGSSVDVPSQEFGLIIGQPVNFQFFGSTVRRDDLAGTHLDYWAPEELEELPEIQVTLPVSEGRREGEVVPVTLASRVTELGTLYLEAIAADNGQKWHVEFDVREDAKSDSNEEQ”, the “soluble on expression in E. coli” value was “not soluble”.

“MAMVSEFLKQAWFIDNEEQEYIKTVKGSKGGPGSAVSPYPTFNPSSDVEALHKAITVKGVDEATIIEILTKRTNAQRQQIKAAYLQEKGKPLDEALKKALTGHLEEVALALLKTPAQFDADELRAAMKGLGTDEDTLNEILASRTNREIREINRVYKEELKRDLAKDITSDTSGDYQKALLSLAKGDRSEDLAINDDLADTDARALYEAGERRKGTDLNVFITILTTRSYPHLRRVFQKYSKYSKHDMNKVLDLELKGDIENCLTVVVKCATSKPMFFAEKLHQAMKGIGTRHKTLIRIMVSRSEIDMNDIKACYQKLYGISLCQAILDETKGDYEKILVALCGGD”: the “soluble on expression in E. coli” value is recorded as “soluble”.

As to “MAHHHHHHMEVREGEPPQSWTYKAVCMTLEKDDGVEQSGAPRLRLMVLTSEKGWPYSWRWKENKSTRDCHVNCEVDRVWRTVKGDLTKWFSRRAKNKLSPRRRLLVGTPWIGNSMAADSYLLYQLLHGDAEKLQVAVYSFGSQSFLFDKTTQAVREYVDTTKSKRVFFFWQL”, the “soluble on expression in E. coli” value is listed as “soluble”.

“MGSDKIHHHHHHMRVGLTLYGSLDEQSGGFRYDRKLVEGLRAAGDTVECIQLPWRDYHRGLLDNGSRKLRQRLDVDVDVMLQDELAHPSLVRTNRALSYPIVSIVHHLRASEPRRLAPLYRAVERRYLGTVQAVVCNSATTRNVVTNLGVDPEDTVVAPPAGDQFDPDIDRATIERRATTEPLQVVFVGNVSPRKGLDTLVDGVAAAAVDIDLTVVGRHVDAAHVTSVQERVREHDLADRVQFAGRLPDGELAKTLRSSHVLAVPSRYEGFGIVYLEGMSFGLPALATRAGGAADIVTDDETGVLVDPDDSAAVARELERFATDRDRLAEMGWAARRNYETHPDWEETVGRVRDLLSDIVQPTEVPA”: the “soluble on expression in E. coli” value is “not soluble”.

With “MHHHHHHSSGVDLGTENLYFQSMQRGYLLTRNPHLNKDLAFTLEERQQLNIHGLLPPSFNSQEIQVLRVVKNFEHLNSDFDRYLLLMDLQDRNEKLFYRVLTSDIEKFMPIVYTPTVGLACQQYSLVFRKPRGLFITIHDRGHIASVLNAWPEDVIKAIVVTDGERILGLGDLGCNGMGIPVGKLALYTACGGMNPQECLPVILDVGTENEELLKDPLYIGLRQRRVRGSEYDDFLDEFMEAVSSKYGMNCLIQFEDFANVNAFRLLNKYRNQYCTFNDDIQGTASVAVAGLLAALRITKNKLSDQTILFQGAGEAALGIAHLIVMALEKEGLPKEKAIKKIWLVDSKGLIVKGRASLTQEKEKFAHEHEEMKNLEAIVQEIKPTALIGVAAIGGAFSEQILKDMAAFNERPIIFALSNPTSKAECSAEQCYKITKGRAIFASGSPFDPVTLPNGQTLYPGQGNNSYVFPGVALGVVACGLRQITDNIFLTTAEVIAQQVSDKHLEEGRLYPPLNTIRDVSLKIAEKIVKDAYQEKTATVYPEPQNKEAFVRSQMYSTDYDQILPDCYSWPEEVQ”, the “soluble on expression in E. coli” value was “soluble”.

Consider “MSLKRRQTNIIGVYLADYGGSFYGELLEGIKKGLALFDYEMIVCSGKKSHLFIPEKMVDGAIILDWTFPTKEIEKFAERGHSIVVLDRTTEHRNIRQVLLDNRGGATQAIEQFVNVGSKKVLLLSGPEKGYDSQERLAVSTRELTRFGIPYEIIQGDFTEPSGYAAAKKILSQPQTEPVDVFAFNDEMAIGVYKYVAETNYQMGKDIRIIGFDNSELGAFVQPRLATIAYSKHRWGMVAAEKIIHLMRGEAAESEHIYTRFIEGESFPSEGHHHHHH”, for which the “soluble on expression in E. coli” value is “soluble”.

Turning to “MLPNGRKWLDLWRKNVTVTAGGFLAISATTGVAGYEMAKDDVTLIKNGNKQEIRTHAKTVKELLAEQNIQPRKEDYVYPSLHSPITDDLHIVWEASKEVTLTVNGKKKKIWTTADTVAELLRSQHVAVGAYDKVAPALSAKIQKGMDIGVEKAFPVHVNVGGKQQQVWTTSTTVADFLKQQGIQLGQFDRIEPSLHETVKEQMTIRVIRVKKVTDVVEEPVDFAVVTKRDDSLPKGERRVIQPGEKGMVQKTYEVTLENGKETARKLIAAKTLKESKARIVAIGTKTVRSAAAPDRPSSRGSDHAAKEFYVTATAYTAYCAGCSGITSTGINLRKNPSAKVIAVDPSIIPLGSKVYVEGYGYAIAADTGSGIRGYKIDVFFPERSDAFRWGRKRVKIRVLP”, the “soluble on expression in E. coli” value is recorded as “not soluble”.

“MSLTQNAVEKTPVTMLGLGAMGTALARTWLAAGHRLTVWNRTPARAAALAAEGARVADSAAEAVAANTLVIVCLLDDSSVDEVLAGIDLADTDLVNLTTSTPAQARARAEWANERGARYLDGGIMAVPPMIGVPEAGSYVFCSGSRELFERHQETLGIPAGTTYVGMDAGFAALHDMALLSAMYGMFAGVAHAFALIHKEDIDPTSLAPMLADWLVAMAPAVHQTADHLRSGDYTKGVVSTLAMQVAGTPTFLSTAEQQGVSPELLSPYFELMRRRLAEGSGEEDLTGVINLLVHEGHHHHHH”: the “soluble on expression in E. coli” value is “not soluble”.

“MYDMINAKYLGKLIFLDFGQTITSLEETSDNSTFFIADEFGNFGSHYVGVVLEQVRSFNTVVILSYQSFANLRNIGGDNFKSQIINNTSTLIAHRLIDMMEAEEVANLYGVDITCASEIKSLKVGQALVRSISSYYGEIKDWLVQQIDKS”: the “soluble on expression in E. coli” value is given as “soluble”.

On to “MAHHHHHHMNLSDSNKDLNDSKSDKSTSWVKWFNSRAFSNFLVEVDNEYITDSFNLYGLKSEMPNFNHLLSIVAGDAPEEDDAKNAFGKDAVSLYSLIHARFITTPKGLSLMKDKYIKGDFGSCPRVSCSQHNVLPIGLFDQIKIAKVHVYCPLCQEIYKIHEEDKVYLDGSFFGTSFPHILLQTYPYYATLKTPSYCTSKIFGFSVYHNFTRTEYKIAKGEFGKLSRENFLKKNPKYLKKLKKEELQIKDT”, for which the “soluble on expression in E. coli” value is reported as “not soluble”.

“MNGIIVDKEKVHPGMPDVVKDAKIALLDAPLEIKKPEFDTNLRIEDPSMIQKFLAQEENMLREMVDKIKSVGANVVITQKGIDDMAQHYLSRAGIYAVRRVKKSDMDKLAKATGASIVSTIDEISSSDLGTAERVEQVKVGEDYMTFVTGSKNHHHHHH”: the “soluble on expression in E. coli” value was “soluble”.

In the case of “MALKDRFDKIISYFDTDDVSENEVHEVQERTSVQRDSRAATAQEASQRSHMTNSAEEEMIGSRPRTYTYDPNRQERQRVQRDNAYQQATPRVQNKDSVRQQREQVTIALKYPRKYEDAQEIVDLLIVNECVLIDFQYMLDAQARRCLDYIDGASRVLYGSLQKVGSSMFLLTPANVMVDIEEMNIPKTGQETSFDFDMKRRLEHHHHHH”, the “soluble on expression in E. coli” value is on record as “not soluble”.

Take “MGLREIEKVTVFCLANENTDISYEVNRALGEIRIYVPYDFMDFLALNSVEEKYKEFCKLVRQYVVPGLEENSTLSSSVVKGYIEESLDEIVKQNYEGIFLVGKTPKKSPSRKKIAILKGIHRVKGFQLRCEVYDEKGLKIRDQLLVEEVGNEMVYSRFLGTLKWESENLIVVQSKSSSWKEEIYL”: the “soluble on expression in E. coli” value is “not soluble”.

Regarding “MDNSSQSKPSSSSSSHSPSPAAITPTQRTTRDSGLCSTIDIPEIQAQCIDNLNSHYLGKGTYGLVEKTRYRKTRQDDFRPAAIKYSSQLHMATLIREAKVMWDLRNHPNIIKIYGLYKSPRNGQGVVMEYMDCGSMADLLYDRTHINYTIDHVASWMFQLSSAVDFFHSNSQVHRDLKLQNMLLSDRYRTMKLCDFGTFTSMHQSMTSNRGTPITMAPEVFRCEQYNMKSDIYSIGIIMWQIIARNHPYRRDLSVPGLLYNVATANLRPQELECNPILSEFYKKCWNDNADIRPTSSECVEYFTLLKDEYPNGSVPLSDSSTNGPAETPPPHAHRPTMLGTSSGSGIGSNNRTPTASKLLNPQQPGQGHRRNRSETFVVQPDLPYPTVPGEAGASRIPKSQSEAKNFRDRAKSEQRQPHRDARPPPPFEHRRDSNDEEKHAVFMNICSNEETRPIDPDTRDEKSLEIFHQHCDNNKQYADAWVIKKEVMRAKHELIAQWPQHDHTVELLERKYYLEQEIARYRDIQDDNYFSTERM”, the “soluble on expression in E. coli” value is recorded as “not soluble”.

For “VEGRFQLVAPYEPQGDQPQAIAKLVDGLRRGVKHQTLLGATGTGKTFTISNVIAQVNKPTLVIAHNKTLAGQLYSELKEFFPHNAVEYFVSYYDYYQPEAYVPQTDTYIEKDAKINDEIDKLRHSATSALFERRDVIIVASVSCIYGLGSPEEYRELVVSLRVGMEIERNALLRRLVDIQYDRNDIDFRGTFRVRGDVVEIFPASRDEHCIRVEFFGDEIERIRAEVDALTGKVLGEREHVAIFPASHFVTREEKMRLAIQNIEQELEERLAELRAQGKLLEAQRLEQRTRYDLEMMREMGFCSGIENYSRHLALRPPGSTPYTLLDYFPDDFLIIVDESHVTLPQLRGMYNGDRARKQVLVDHGFRLPSALDNRPLTFEEFEQKINQIIYVSATPGPYELEHSPGVVEQIIRPTGLLDPTIDVRPTKGQIDDLIGEIRERVERNERTLVTTLTKKMAEDLTDYLKEAGIKVAYLHSEIKTLERIEIIRDLRLGKYDVLVGINLLREGLDIPEVSLVAILDADKEGFLRSERSLIQTIGRAARNANGHVIMYADTITKSMEIAIQETKRRRAIQEEYNRKHGIVPRTVKKEIRDVIRATYAAEETEMYEAKPAAAMTKQEREELIRTLEAEMKEAAKALDFERAAQLRDIIFELKAEG”, the “soluble on expression in E. coli” value is listed as “soluble”.

For the sequence “MRALALDVGLKRIGVALCIDKKIALPLDAVLRKNRNQAANEIKNLLKIHEISLLIVGIPKGGSSEEEMTRRIKHFVSLLEFDKEICFVDESGTSKEALGYGVANTRKKDGKLDSLSAFIMIKDYFALLEHHHHHH”, the “soluble on expression in E. coli” value is “not soluble”.

Consider “MRTMKAPSMGATVEVLSFLQPVTRELVHRSSIAEVFVTDGVRTGENAFSVGAQWPRDHALYHPDENGLNDPLLFAETLRQAHFYGAHTYFGVPVGSRFIGQDVSFEITDPTALRVGAAPLAVVLNGTWTEERDRRGRPAGARLDVTLTVDGRPCGRGHTRGLMLDDRRYRLLRGRPAASGEVSPPRPAPDARIARPNRVGRLRWKDCVLERDRPDQDWRLRVDRDHAVLFDHPTDHVPLMVMLEGFRQLGHLTVHEASRRTLGDRAFALAGLSLDCAAFGELGETILLSLEKGPSEGVPTEECALRVAAHQGERLLARADMTWKCVGSRAPWSRFASWLEHHHHHH”, for which the “soluble on expression in E. coli” value is “not soluble”.

For the origin of these results see the DeepSol protein solubility set.
